Source: PMC6834741
Where “and” joins values, the source holds several entries; their conditions need not be identical. Equal values may be shown once.

Experiments:
[1] = target: His-tagged recombinant human FcγRIIIb (human) (UniProt O75015); test: SPR; Biacore T200; His-tagged FcγR captured by an anti-His antibody on a CM5 chip; dilution series of antibody as analyte; 1:1 kinetic binding model; triplicate
[2] = target: His-tagged recombinant human FcγRIIIa (158 V) (human); test: as above

UniProt O75015, sequence (O75015 17-200): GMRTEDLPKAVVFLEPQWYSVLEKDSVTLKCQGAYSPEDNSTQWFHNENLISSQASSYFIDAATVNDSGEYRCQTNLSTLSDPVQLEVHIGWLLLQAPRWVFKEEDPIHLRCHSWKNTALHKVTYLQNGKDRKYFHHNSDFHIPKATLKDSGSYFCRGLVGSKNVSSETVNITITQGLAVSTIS

Row | Kd [1] | Kd [2] [µM] | Substance
1 | 8.14 µM and 8.29 µM | 0.0913 | ABP 980 (antibody)
2 | 13.8 µM | 0.193 | Trastuzumab (EU) (antibody)
3 | 11.8 µM | 0.146 | Trastuzumab (US) (antibody)
